In this test the target is PP1C in 3T3-L1 adipocyte lysates (mouse (endogenous in 3T3-L1 adipocytes)). Kind of test: GST-PTG added to 3T3-L1 adipocyte lysates, fractionation, PP1 activity in the glycogen pellet.

As for GST-PTG fusion protein, the fold increase in the PP1 activity sedimenting with the glycogen pellet was found to be 8 fold.

Values taken from patent publication US6252057.
